Measured values published in publication PMC7984842, “Genetic disruption of WASHC4 drives endo-lysosomal dysfunction and cognitive-movement impairments in mice and humans” (eLife, 2021).
Each block holds one binder with its values, some of them ahead of it.

Molecular target: T1, SWIP-MUT-HA (human WASHC4 P1019R) (human, UniProt Q2M389 1-1173, P1019R)
T1 construct: SWIP (WASHC4), human, with the patients' variant c.3056C>G, p.Pro1019Arg, made by site-directed mutagenesis of pmCAG-SWIP-WT-HA; The mutation occurs in human patients (Ropers et al., 2011); also called SWIP^P1019R; MUT SWIP; source: HEK293T, transfected (pmCAG-SWIP-MUT-HA), in lysate
T1 sequence (looked up): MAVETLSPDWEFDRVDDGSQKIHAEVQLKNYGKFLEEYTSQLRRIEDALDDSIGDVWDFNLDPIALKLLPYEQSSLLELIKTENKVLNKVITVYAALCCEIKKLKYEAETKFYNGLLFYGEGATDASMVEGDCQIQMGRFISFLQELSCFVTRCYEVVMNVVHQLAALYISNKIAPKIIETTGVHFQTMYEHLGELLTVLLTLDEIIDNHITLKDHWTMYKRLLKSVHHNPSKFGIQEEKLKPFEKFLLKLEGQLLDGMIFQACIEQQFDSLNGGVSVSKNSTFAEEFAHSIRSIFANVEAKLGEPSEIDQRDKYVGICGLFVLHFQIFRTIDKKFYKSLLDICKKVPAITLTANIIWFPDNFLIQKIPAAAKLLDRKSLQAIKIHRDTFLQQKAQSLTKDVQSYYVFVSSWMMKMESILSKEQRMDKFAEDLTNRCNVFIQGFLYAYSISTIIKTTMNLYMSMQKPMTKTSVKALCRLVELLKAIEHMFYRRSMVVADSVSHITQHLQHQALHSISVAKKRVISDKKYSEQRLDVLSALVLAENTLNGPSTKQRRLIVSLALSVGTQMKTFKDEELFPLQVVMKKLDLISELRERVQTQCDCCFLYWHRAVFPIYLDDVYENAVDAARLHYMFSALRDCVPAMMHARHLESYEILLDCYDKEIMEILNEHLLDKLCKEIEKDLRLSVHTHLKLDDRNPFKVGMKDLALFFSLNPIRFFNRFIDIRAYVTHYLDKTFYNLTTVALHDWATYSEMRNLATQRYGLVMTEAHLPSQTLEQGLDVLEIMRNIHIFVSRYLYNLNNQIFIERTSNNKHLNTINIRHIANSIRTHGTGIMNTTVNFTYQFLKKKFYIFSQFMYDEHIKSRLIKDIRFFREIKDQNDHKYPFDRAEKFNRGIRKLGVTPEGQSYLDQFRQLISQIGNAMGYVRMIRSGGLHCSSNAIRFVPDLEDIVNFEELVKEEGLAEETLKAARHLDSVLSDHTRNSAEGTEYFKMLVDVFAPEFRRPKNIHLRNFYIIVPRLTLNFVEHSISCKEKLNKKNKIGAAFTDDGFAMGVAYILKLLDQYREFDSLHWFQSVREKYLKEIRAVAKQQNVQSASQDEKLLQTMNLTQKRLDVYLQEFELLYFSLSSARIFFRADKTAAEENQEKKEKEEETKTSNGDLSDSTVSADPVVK
Experiment: co-IP; HEK293T transfected with SWIP-WT-HA or SWIP-MUT-HA for three days; lysis buffer 25 mM HEPES, 150 mM NaCl, 1 mM EDTA, 1% Nonidet P-40, pH 7.4; anti-HA agarose beads 2 hr at 4°C; blots for WASH1, Strumpellin and HA; band intensities normalised to WT
Conditions: partners not purified

amount co-immunoprecipitated, % of WT SWIP: 54.8 % of WT
B1: Strumpellin (WASHC5), human (natural protein, human (endogenous in HEK293T), UniProt Q12768 1-1159, looked up)
chain: MLDFLAENNLCGQAILRIVSCGNAIIAELLRLSEFIPAVFRLKDRADQQKYGDIIFDFSYFKGPELWESKLDAKPELQDLDEEFRENNIEIVTRFYLAFQSVHKYIVDLNRYLDDLNEGVYIQQTLETVLLNEDGKQLLCEALYLYGVMLLVIDQKIEGEVRERMLVSYYRYSAARSSADSNMDDICKLLRSTGYSSQPGAKRPSNYPESYFQRVPINESFISMVIGRLRSDDIYNQVSAYPLPEHRSTALANQAAMLYVILYFEPSILHTHQAKMREIVDKYFPDNWVISIYMGITVNLVDAWEPYKAAKTALNNTLDLSNVREQASRYATVSERVHAQVQQFLKEGYLREEMVLDNIPKLLNCLRDCNVAIRWLMLHTADSACDPNNKRLRQIKDQILTDSRYNPRILFQLLLDTAQFEFILKEMFKQMLSEKQTKWEHYKKEGSERMTELADVFSGVKPLTRVEKNENLQAWFREISKQILSLNYDDSTAAGRKTVQLIQALEEVQEFHQLESNLQVCQFLADTRKFLHQMIRTINIKEEVLITMQIVGDLSFAWQLIDSFTSIMQESIRVNPSMVTKLRATFLKLASALDLPLLRINQANSPDLLSVSQYYSGELVSYVRKVLQIIPESMFTSLLKIIKLQTHDIIEVPTRLDKDKLRDYAQLGPRYEVAKLTHAISIFTEGILMMKTTLVGIIKVDPKQLLEDGIRKELVKRVAFALHRGLIFNPRAKPSELMPKLKELGATMDGFHRSFEYIQDYVNIYGLKIWQEEVSRIINYNVEQECNNFLRTKIQDWQSMYQSTHIPIPKFTPVDESVTFIGRLCREILRITDPKMTCHIDQLNTWYDMKTHQEVTSSRLFSEIQTTLGTFGLNGLDRLLCFMIVKELQNFLSMFQKIILRDRTVQDTLKTLMNAVSPLKSIVANSNKIYFSAIAKTQKIWTAYLEAIMKVGQMQILRQQIANELNYSCRFDSKHLAAALENLNKALLADIEAHYQDPSLPYPKEDNTLLYEITAYLEAAGIHNPLNKIYITTKRLPYFPIVNFLFLIAQLPKLQYNKNLGMVCRKPTDPVDWPPLVLGLLTLLKQFHSRYTEQFLALIGQFICSTVEQCTSQKIPEIPADVVGALLFLEDYVRYTKLPRRVAEAHVPNFIFDEFRTVL
notes: Strumpellin (WASHC5), endogenous in HEK293T cells, detected with an anti-Strumpellin antibody; source: endogenous, HEK293T lysate

amount co-immunoprecipitated, % of WT SWIP: 41.4 % of WT
B2: WASH1 (WASHC1), human (natural protein, human (endogenous in HEK293T), UniProt A8K0Z3 1-465, looked up)
chain: MTPVRMQHSLAGQTYAVPFIQPDLRREEAVQQMADALQYLQKVSGDIFSRISQQVEQSRSQVQAIGEKVSLAQAKIEKIKGSKKAIKVFSSAKYPAPGRLQEYGSIFTGAQDPGLQRRPRHRIQSKHRPLDERALQEKLKDFPVCVSTKPEPEDDAEEGLGGLPSNISSVSSLLLFNTTENLYKKYVFLDPLAGAVTKTHVMLGAETEEKLFDAPLSISKREQLEQQVPENYFYVPDLGQVPEIHVPSYLPDLPGIANDLMYSADLGPGIAPSAPGTIPELPTFHTEVAEPLKVDLQDGVLTPPPPPPPPPPAPEVLASAPPLPPSTAAPVGQGARQDDSSSSASPSVQGAPREVVDPSGGWATLLESIRQAGGIGKAKLRSMKERKLEKQQQKEQEQVRATSQGGHLMSDLFNKLVMRRKGISGKGPGAGEGPGGAFVRVSDSIPPLPPPQQPQAEEDEDDWES
notes: WASH1 (WASHC1), endogenous in HEK293T cells, detected with an anti-WASH1 C-terminal antibody; Human cells carry several near-identical WASH paralogues; source: endogenous, HEK293T lysate
